# Patent WO2005035751A1 (dated 2005)
# Target: T1, angiotensin II-biotin (UniProt P01019 25-32, biotin attached (angiotensin II-biotin; chemical structure only in Figure 3))
# T1 construct: Captured through its biotin on streptavidin (Biacore chip, ELISA plate) or on NeutrAvidin resin (selection); P01019 is the human angiotensinogen precursor, and angiotensin II is only a fragment of it; also called アンジォテンシン II-ピオチン
# Experiment: SPR (Biacore 3000), angiotensin II-biotin on streptavidin chip
row,Binder,binding result
1,"MI3-26 (scFv, Single-chain antibody translated in wheat germ extract) scFv: MASMTGGQQMGQVTLKECGPGILQPSQTLSLTCSFSGFSLSTSGMSVGWIRQPSGKGLKWLAHIWWNDDKYYNPAPKSRLTISKDTSNNQVFLKIASVVTADTATYYCARIARISYYFDYWGQGTTLTVSSAKTSRPSGGGGSGGGGTGGVGSRGGSSIEGRDIQLTQPPSFLSASLGDRVSLTCRVSQDIGSSLNWLQQDPDGTIKRLIYAISSIDSGVPKRFSGNRSESDYSLTISSLESEDFVDYYCLQYASTPPTFGGGTKLEIKRDYKDDDDKRTSRVRLHHHHHHHKK",binds
2,"MI3-41 (scFv, Single-chain antibody translated in wheat germ extract) scFv: MASMTGGQQMGQVTLKESGPGILQPSQTLSLTCSFSGFSLSTSGMGVGWIRQPSGKGLEWLAHIWRDDVKRYNPALKSRLTISKDTSSSQVFLKIASMDTADTATYYCARIYYYGPYFDVWGAGTTVTVSLAKTSRPSGGGGSGRGGSGGAGSGGGGSIEGRDIQLTQPPSFLSASLGDRVSLTCRVSQDIGSSLNWLQQDPDGTIKRLIYAISSIDSGVPKRFSGNRSESDYSLTISSLESEDFVDYYCLQYASTPPTFGGGTKLEIKRDYKDDDDKRTSRVRLHHHHHHHKK",binds
3,"MI3-5 (scFv, Single-chain antibody translated in wheat germ extract) scFv: MASMTGGQQMGQVTLKETGPGILQPSQTLSLTCSFSGFSLSTSGMGVGWIRQPSGKGLEWLAHIWRDDVKRYNPALKSRLTISKDTSSSQVFLKIASMDTADTATYYCTRIYYYGPYFDVWGAGTTVTVSLAKTSRPSGGGGSGGGGSGGAGSGGGGSIEGRDIQLTQPPSFFSASLGDRASLTRRVSQDIGSSLNWLQQDPDGTIKRLIYAISSIDSGVPKRFSGNRSESDYSLTISSLESEDFVDYYCLQYASTPSTFGGGTKLEIKRDYKDDDDKRTSRVRLHHHHHHHKK",binds
4,"MI3-15 (scFv, Single-chain antibody translated in wheat germ extract) scFv: MASMTGGQQMGQVTLKESGPGILQPSQTLSLTCSFSGFSLSTSGMGVGWIRQPSGKGLEWLAHIWRDDVKRYNPALKSRLTISKDTSSSQVFLKIASMDTADTATYYCARIYYYGPYFDVWGAGTTVTVSLAKTSRPSGGGGSGRGGSGGAGSGGGGSIEGRDIQLTQPPSFLSASLGDRVSLTCRVSQDIGSSLNWLQQDPDGTIKRLIYAISSIDSGVPKRFSGNRSESDYFLTISSLESEDFVDYYCLQYASTPPTFGGGTKLEIKRDYKDDDDKRTSRVRLHHHHHHHKK",binds
5,"MI3-28 (scFv, Single-chain antibody translated in wheat germ extract) scFv: MASMTGGQQMGQVTLKESGPGILQPSQTLSLTCSFSGFSLSTSGMGVGWIRQPSGKGLEWLAHIWRDDVKRYNPALKSRLTISKDTSSSQVFLKIASMDTADTATYYCPRIYYYGPYFDVWGAGTTVTVSLAKTSRPSGGGGSGGGGSGGAGSGGGGSIEGRDIQLTQPPSFLSASLGDRVSLTCRVSQDIGSSLNWLQQDPDGTIKRLIYAISSIDSGVPKRFSGNRSESDYSLTISSLESEDFVDYYCLQYASTPPTFGGGTKLEIKRDYKDDDDKRTSRVRLHHHHHHHKK",binds
6,"MI3-34 (scFv, V domains shown, Single-chain antibody translated in wheat germ extract) VH: QVTLKESGPGILQPSQTLSLTCSFSGFSLSTSGMGVGWIRQPSGKGLEWLAHIWQDNVKRYNPALKSRLSISKDTSSSQVFLKIASMDTADTATYYCARIYYYGPYFDVWGAWTTVTVSL",binds
7,"MI3-42 (scFv, Single-chain antibody translated in wheat germ extract) scFv: MASMTGGQQKGQVTLKESGPGILQPSQTLSLTCSFSGFSLSTSGMGVGWIRQPSGKGLEWLAHIWRDDVKRYNPALKSRLTISKDTSSSQVFLKIASMDTADTATYYCARIYYYGPYFDVWGAGTTVTVSLAKTSRPSGGGGSGGGGSGGAGSGGGGSIEGRDIQLTQPPSFLSASLGDRVSLTCRVSQDIGSSLNWLQQDPDGTVKRLIYAISSIDSGVPKRFSGNRSESDYSLTISSLESEDFVDYYCLQYASTPPTFGGGTKLEIKRDYKDDDDKRTSRVRLHHHHHHHKK",binds
